Test results published in patent US20140206849A1 (Alexion, published 2014).

B1: humanized anti-human C5a antibody (antibody, V domains shown)
VH: QVQLVQSGAEVKKPGASVKVSCKASGYTFTDYSMDWVRQAPGQGLEWMGAINPNSGGTNYNQKFKDRVTMTRDTSTSTVYMELSSLRSEDTAVYYCARSGSYDGYYAMDYWGQGTTVTVSS
VL: DIQMTQSPSSLSASVGDRVTITCRASESVDSYGNSFMHWYQQKPGKAPKLLIYRASNLESGVPSRFSGSGSGTDFTLTISSLQPEDFATYYCQQSNEDPYTFGGGTKVEIK
notes: also called humanized anti-C5a antibody; the humanized antibody
B2: murine anti-human C5a antibody (antibody, V domains shown)
VH: EVQLQQSGPELVKPGSSVKISCKASGYTFTDYSMDWVKQSHGKSLEWIGAINPNSGGTNYSQKFKDKATLTVDKSSSTAYMELRSLTSEDSAVYYCASSGSYDGYYAMDYWGQGTSVTVSS
VL: DIVMTQSPASLAVSLGQRATISCRASESVDSYGNSFMHWYQQKPGQPPKLLIYRASNLESGIPARFSGSGSRTDFTLTINPVEADDVATYYCQQSNEDPYTFGGGTKLEIKR
notes: also called murine anti-C5a antibody; murine anti-C5a antibody counterpart

What was measured:
human C5a [1] = biological target: T1, human C5a (human, UniProt P01031 678-751); test: SPR (Biacore), antibody captured by anti-human Fc on CM5 chip, human C5a 0.6-5.9 nM in solution, 1:1 Langmuir fit; humanized antibody
T1 sequence (looked up): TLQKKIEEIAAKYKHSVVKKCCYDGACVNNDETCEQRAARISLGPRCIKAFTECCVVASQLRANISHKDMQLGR
From the text: The humanized antibody was subjected to BIAcore analysis to quantify its affinity for human C5a, in part, to determine if humanization affected the binding affinity of the antibody for its antigen. See, e.g., Karlsson and Larsson (2004) Methods Mol Biol 248:389-415. Briefly, the humanized antibody was screened with 3-4 concentrations of human C5a (antigen) using a capture technique. The antibody was captured by an anti-Fc (human) antibody directly immobilized on a CM5 sensor chip with various concentrations in the range from 0.6 nM to 5.9 nM of human C5a passed over the sensor chip surface. The surface was regenerated with 20 mM HCl, 0.02% P20 after each cycle to remove bound antibody and antigen. The data were evaluated using Biacore BIAevaluation software using a 1:1 Langmuir Model Fit (Rmax:Global Fit; RI:Local Fit). Kinetics information such as kₐ (Association Rate constant), kd (Dissociation Rate constant), and KD (Equillibrium Dissociation constant) was obtained from the fit. […] Methods for testing the humanized antibody for reduced immunogenicity in a human, as compared to the donor antibody, are known in the art and described herein.

human C5a [2] = biological target: T1, human C5a; test: SPR (Biacore), 'under similar conditions' to the humanized antibody; murine antibody

Row | Binder | Kd (human C5a [1]) [nM] | koff (human C5a [1]) [s⁻¹] | kon (human C5a [1]) [M⁻¹ s⁻¹] | Kd (human C5a [2]) [nM] | koff (human C5a [2]) [s⁻¹] | kon (human C5a [2]) [M⁻¹ s⁻¹]
1 | B1 | ~0.298 | ~0.000576 | ~1.93e+06 | – | – | –
2 | B2 | – | – | – | ~0.512 | ~0.00141 | ~2.76e+06
